Biological target: recombinant TdfH (Neisseria gonorrhoeae TonB-dependent transporter, NGO0952) (Neisseria gonorrhoeae)
Assay: ITC; Nano ITC, 25°C, 1x PBS with 0.05% DDM; TdfH (300 μl, 20 μM) in the cell, CP sample (200 μM) in 20 injections of 2.5 μl; fitted with NanoAnalyze to a two-state (multisite) model, TKO to a single-site model

mouse calprotectin (heterodimer of mouse S100A8 and S100A9) (from UniProt P27005 1-89; P31725 1-113) (complex)
KD, higher affinity (two-state model): 0.72 µM | KD, lower affinity (two-state model): 51 µM
